Results on two molecules are retold here after paper PMC5222588, “Binding of Myomesin to Obscurin-Like-1 at the Muscle M-Band Provides a Strategy for Isoform-Specific Mechanical Protection” (Structure(London, England:1993), 2017).

Assay [1] concerns the target OL3:My4LMy5 complex (obscurin-like-1:myomesin heterodimer) (human) (UniProt O75147). Description: SEC; Superdex S75 10/300; OL3:My4LMy5 complex injected at 3.0 and 8.2 mg/mL (0.082–0.225 mM); dimer of heterodimers to heterodimers.
The target is the same in assay [2]. Description: crystal structure; OL3:My4LMy5 complex at 3.0 mg/mL; 20% PEG8000, 0.1 M Tris-HCl pH 8.5, 0.2 M MgCl2, matrix microseeding; 3.1 Å, space group C2.
In assay [3] the target is T1, obscurin third immunoglobulin domain (O3) (human, UniProt Q5VST9 236-331).
T1 construct: obscurin, human, third Ig domain (O3); Insoluble when expressed alone; source: E. coli, co-expressed with myomesin My4LMy5 from a bicistronic vector, purified as a complex (SEC); not shown: GST, N-terminal, cleaved
T1 sequence (looked up): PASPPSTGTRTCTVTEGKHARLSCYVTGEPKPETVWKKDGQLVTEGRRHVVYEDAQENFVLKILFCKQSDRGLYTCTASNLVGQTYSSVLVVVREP
Description: SEC; GST-cleaved complexes co-expressed in E. coli from a bicistronic vector; SEC during purification. As to conditions: both partners purified.

The target in assay [4] is T2, obscurin-like-1 third immunoglobulin domain (OL3) (human, UniProt O75147 251-339).
T2 construct: obscurin-like-1, human, third Ig domain (OL3); the printed contact residues F265 to V332 lie in it; Insoluble when expressed alone; obtained only by co-expression with myomesin; Construct limits are in the Supplemental Experimental Procedures; source: E. coli, co-expressed with myomesin from a bicistronic vector, purified as a complex (SEC); not shown: GST, N-terminal, cleaved
T2 sequence: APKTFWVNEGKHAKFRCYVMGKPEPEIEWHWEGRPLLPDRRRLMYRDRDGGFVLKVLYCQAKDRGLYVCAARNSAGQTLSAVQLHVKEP
The assay is described as above. As to conditions: both partners purified.

Consider “OL3:My4LMy5 complex (obscurin-like-1:myomesin heterodimer) (from UniProt O75147 251-339; P52179 510-739)”, for which, in assay [1], the dimer:monomer ratio at 8.2 mg/mL is 30 % dimer and the stoichiometry N came out at 2. The molecule also came in with a stoichiometry N in assay [2] of 2.

B1: myomesin region encompassing the fourth and fifth Fn-III domains (My4LMy5) (domain or fragment, human)
chain: PAAPLDVKCLEANKDYIIISWKQPAVDGGSPILGYFIDKCEVGTDSWSQCNDTPVKFARFPVTGLIEGRSYIFRVRAVNKMGIGFPSRVSEPVAALDPAEKARLKSRPSAPWTGQIIVTEEEPSEGIVPGPPTDLSVTEATRSYVVLSWKPPGQRGHEGIMYFVEKCEAGTENWQRVNTELPVKSPRFALFDLAEGKSYCFRVRCSNSAGVGEPSEATEVTVVGDKLDIP
notes: myomesin (MYOM1), human, Fn-III domains My4 and My5 with the linker L between them; My4 begins near residue 510 (My4LH is 510-618); My5 is in the crystallised protein but invisible in the electron density; Construct limits are in the Supplemental Experimental Procedures; also called My4L (name of the part visible in the crystal); source: E. coli, co-expressed with GST-OL3 or GST-O3 from a …
For the molecule B1, the “stoichiometry N” value in assay [3] and in assay [4] was 1 throughout.
